From patent US20130156786A1 (Sanofi, published 2013)

Assays:
[1] = molecular target: T1, rat α2β1 integrin (whole blood) (rat, UniProt A0A0G2K470 27-1178; P49134 21-798); assay: FACS on whole blood, PE-coupled goat anti-mouse IgG
T1 construct: whole, on cells

[2] = molecular target: dog α2β1 integrin (whole blood) (dog); assay: as above
[3] = molecular target: rabbit α2β1 integrin (whole blood) (rabbit, UniProt G1T180 31-1185; A0A5F9C3C4 21-798); assay: as above
[4] = molecular target: T2, mouse α2β1 integrin (whole blood) (mouse, UniProt Q62469 27-1178; P09055 21-798); assay: as above
T2 construct: whole, on cells

[5] = molecular target: T3, α2 integrin on HUVEC cells; assay: MesoScale electrochemiluminescence binding to HUVEC cells coated on plates, serial dilutions of the mAb
T3 construct: The sheet names no target; also called HUVEC cells (promocell C12200, lot 6062203)
Procedure: (§1) To further assess the binding properties of the anti-α2 integrin mAb, a cell based assay with HUVEC cells (promocell C12200, lot 6062203) was performed. Cells were coated onto high binding plates (Meso Scale Discovery (MSD), L15XB-3) in PBS (10.000 cells/well) and incubated for 2 hrs at room temperature. Then the plates were emptied, washed twice with PBS and blocked with blocking solution (MSD, R93BA-4) for 90 min. After emptying and washing the plates again as described above, serial dilutions of anti α2-mAb were added and incubated with the cells for 1 h at room temperature. Following another washing step as above Read buffer T without surfactant (Meso scale Discovery, R92TD-2) was added. Electrochemilumenescence was read in a suitable device (Meso scale Discovery, Sector imager). Scatchard plot analysis was used to determine KD of the tested mAbs (see FIG. 1).

[6] = molecular target: T3, α2 integrin on HUVEC cells; assay: Scatchard plot (B/F against B (RLU)) of MesoScale electrochemiluminescence binding to HUVEC cells coated on plates; drawn table: SD 0.01291, CV(%) 6.0, 95%CI [0.1899; 0.2425]
Procedure: as §1

T3 sequence (alpha, as listed by the source limits assumed): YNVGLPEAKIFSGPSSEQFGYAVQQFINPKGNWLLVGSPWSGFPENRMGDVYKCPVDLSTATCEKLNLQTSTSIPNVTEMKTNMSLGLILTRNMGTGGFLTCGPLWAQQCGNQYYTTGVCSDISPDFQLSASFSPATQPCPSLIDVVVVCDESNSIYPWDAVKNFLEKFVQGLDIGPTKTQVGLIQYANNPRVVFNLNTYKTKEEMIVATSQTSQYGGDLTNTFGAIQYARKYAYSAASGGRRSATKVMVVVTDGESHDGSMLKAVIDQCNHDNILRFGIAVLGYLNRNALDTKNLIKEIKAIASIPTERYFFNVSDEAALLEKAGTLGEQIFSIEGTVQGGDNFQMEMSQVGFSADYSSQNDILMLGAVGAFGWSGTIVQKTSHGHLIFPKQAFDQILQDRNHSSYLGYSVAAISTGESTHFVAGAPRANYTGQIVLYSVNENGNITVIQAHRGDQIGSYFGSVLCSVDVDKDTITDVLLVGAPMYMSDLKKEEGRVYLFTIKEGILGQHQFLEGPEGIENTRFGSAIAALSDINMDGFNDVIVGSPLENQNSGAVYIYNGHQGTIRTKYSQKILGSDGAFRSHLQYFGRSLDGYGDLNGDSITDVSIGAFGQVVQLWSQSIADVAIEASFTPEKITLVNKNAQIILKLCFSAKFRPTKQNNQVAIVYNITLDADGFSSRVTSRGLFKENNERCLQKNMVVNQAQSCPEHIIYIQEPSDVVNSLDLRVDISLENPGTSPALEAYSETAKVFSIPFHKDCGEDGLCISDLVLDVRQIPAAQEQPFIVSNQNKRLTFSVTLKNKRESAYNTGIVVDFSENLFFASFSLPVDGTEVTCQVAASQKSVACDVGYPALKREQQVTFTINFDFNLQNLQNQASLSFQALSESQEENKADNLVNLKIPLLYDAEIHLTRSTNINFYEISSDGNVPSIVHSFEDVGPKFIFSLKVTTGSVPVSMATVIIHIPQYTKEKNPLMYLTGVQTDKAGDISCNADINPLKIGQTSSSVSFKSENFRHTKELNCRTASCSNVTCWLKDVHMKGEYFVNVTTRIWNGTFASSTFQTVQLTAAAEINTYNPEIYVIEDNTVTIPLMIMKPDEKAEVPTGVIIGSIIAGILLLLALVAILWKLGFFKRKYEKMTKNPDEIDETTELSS
T2 sequence (Q62469 27-1178, chain 1 of 2): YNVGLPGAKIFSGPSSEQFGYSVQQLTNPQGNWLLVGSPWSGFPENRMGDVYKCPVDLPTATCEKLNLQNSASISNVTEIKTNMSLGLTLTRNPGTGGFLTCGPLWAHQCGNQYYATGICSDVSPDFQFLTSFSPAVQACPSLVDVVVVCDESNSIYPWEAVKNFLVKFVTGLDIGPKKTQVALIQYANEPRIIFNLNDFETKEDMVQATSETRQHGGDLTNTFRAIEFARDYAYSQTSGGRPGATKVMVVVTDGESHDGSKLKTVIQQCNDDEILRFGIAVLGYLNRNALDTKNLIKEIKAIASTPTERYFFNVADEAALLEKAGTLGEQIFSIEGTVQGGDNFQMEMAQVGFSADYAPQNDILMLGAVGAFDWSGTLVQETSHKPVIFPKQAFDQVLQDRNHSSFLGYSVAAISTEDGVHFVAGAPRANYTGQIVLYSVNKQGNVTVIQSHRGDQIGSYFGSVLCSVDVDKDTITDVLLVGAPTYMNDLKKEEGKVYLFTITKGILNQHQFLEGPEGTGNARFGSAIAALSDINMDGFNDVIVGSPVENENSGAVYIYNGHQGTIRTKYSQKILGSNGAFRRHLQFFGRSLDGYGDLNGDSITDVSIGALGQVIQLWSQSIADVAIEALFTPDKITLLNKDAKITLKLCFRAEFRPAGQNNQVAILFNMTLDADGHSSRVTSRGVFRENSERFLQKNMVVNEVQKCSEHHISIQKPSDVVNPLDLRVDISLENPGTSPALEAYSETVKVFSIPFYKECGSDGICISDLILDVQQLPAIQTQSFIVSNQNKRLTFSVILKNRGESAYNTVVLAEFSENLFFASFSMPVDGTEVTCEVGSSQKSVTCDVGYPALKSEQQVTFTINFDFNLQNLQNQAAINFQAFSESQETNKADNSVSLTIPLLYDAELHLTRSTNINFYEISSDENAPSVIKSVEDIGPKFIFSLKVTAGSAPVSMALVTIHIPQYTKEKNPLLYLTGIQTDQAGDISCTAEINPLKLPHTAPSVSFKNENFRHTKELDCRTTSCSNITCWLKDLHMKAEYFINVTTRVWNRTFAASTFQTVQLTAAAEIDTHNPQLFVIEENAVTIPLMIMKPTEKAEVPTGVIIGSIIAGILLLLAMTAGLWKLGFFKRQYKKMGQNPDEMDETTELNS
T2 sequence (P09055 21-798, chain 2 of 2): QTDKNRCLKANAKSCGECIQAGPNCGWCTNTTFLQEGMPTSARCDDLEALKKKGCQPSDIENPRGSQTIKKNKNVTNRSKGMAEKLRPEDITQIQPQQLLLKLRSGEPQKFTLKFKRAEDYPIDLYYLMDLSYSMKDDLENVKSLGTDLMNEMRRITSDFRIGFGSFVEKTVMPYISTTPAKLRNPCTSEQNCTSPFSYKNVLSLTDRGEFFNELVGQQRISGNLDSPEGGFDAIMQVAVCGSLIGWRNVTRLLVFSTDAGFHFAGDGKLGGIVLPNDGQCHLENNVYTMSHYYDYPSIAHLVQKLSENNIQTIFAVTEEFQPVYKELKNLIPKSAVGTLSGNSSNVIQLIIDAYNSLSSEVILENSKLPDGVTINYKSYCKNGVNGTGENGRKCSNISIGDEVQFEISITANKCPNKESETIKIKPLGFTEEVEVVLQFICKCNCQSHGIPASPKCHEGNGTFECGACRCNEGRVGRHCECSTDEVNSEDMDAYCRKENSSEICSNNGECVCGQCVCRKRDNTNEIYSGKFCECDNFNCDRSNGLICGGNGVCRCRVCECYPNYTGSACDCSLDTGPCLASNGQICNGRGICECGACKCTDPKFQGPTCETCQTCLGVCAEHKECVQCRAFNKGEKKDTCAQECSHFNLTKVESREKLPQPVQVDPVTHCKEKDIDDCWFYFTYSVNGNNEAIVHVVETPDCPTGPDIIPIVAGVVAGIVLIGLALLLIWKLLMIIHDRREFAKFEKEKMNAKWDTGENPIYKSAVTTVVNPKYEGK
Chain of dog α2β1 integrin (whole blood) (dog) (alpha, as listed by the source limits assumed, chain 1 of 2): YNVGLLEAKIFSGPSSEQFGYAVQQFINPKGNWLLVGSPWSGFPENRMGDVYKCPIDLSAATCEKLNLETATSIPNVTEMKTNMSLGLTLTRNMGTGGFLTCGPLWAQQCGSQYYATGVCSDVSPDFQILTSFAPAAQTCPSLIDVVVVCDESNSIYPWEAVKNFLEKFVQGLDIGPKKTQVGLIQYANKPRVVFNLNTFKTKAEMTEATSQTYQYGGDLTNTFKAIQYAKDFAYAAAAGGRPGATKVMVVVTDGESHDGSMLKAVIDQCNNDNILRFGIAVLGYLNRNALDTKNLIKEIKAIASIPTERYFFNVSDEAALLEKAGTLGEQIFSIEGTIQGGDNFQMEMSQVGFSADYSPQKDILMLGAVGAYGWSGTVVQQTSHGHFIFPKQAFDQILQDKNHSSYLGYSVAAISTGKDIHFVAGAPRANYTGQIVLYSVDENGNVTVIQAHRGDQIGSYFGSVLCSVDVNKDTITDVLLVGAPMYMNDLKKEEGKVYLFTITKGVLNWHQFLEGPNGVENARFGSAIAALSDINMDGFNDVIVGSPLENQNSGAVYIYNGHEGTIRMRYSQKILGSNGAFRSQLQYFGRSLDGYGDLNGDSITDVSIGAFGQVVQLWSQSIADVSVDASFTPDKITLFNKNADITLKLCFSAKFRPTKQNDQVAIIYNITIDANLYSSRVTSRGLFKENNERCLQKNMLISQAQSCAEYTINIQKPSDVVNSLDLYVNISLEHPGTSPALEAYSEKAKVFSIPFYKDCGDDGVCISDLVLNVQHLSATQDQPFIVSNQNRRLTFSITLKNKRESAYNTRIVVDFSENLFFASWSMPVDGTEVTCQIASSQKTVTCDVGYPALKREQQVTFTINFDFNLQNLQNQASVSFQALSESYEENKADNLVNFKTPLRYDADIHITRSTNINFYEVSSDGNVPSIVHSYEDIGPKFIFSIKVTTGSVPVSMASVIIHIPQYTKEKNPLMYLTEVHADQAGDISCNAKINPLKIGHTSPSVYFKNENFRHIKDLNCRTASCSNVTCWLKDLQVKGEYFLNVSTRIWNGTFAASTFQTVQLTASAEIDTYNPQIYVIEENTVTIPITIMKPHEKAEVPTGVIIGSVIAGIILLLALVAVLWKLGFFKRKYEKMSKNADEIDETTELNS
Chain of dog α2β1 integrin (whole blood) (dog) (beta, as listed by the source limits assumed, chain 2 of 2): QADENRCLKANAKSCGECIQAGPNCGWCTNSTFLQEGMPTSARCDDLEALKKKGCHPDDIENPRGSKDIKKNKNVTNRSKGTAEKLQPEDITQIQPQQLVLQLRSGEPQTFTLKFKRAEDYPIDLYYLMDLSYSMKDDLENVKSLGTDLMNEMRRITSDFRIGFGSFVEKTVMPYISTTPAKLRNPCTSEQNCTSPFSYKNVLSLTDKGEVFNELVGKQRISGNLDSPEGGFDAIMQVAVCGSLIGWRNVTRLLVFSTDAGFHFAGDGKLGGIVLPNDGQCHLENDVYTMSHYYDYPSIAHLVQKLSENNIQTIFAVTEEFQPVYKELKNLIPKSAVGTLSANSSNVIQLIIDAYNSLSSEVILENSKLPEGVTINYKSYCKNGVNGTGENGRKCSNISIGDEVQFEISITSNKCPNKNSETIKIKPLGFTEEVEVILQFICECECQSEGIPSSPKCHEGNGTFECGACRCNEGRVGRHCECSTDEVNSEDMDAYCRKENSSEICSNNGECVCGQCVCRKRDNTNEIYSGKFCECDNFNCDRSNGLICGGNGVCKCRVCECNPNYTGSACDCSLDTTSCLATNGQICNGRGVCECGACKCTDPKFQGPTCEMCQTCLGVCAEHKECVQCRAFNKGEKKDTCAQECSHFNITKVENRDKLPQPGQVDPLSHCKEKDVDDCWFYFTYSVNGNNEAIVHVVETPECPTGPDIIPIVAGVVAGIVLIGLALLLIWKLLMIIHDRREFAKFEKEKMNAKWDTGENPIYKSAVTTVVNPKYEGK

B1: anti-α2 integrin mAb purified from hybridoma supernatant (murine, mCk, mIgG2a) (antibody)
heavy: QVQLHQPGAELVKPGAPVKLSCKASGYTFTSYWMNWVKQRPGRGLEWIGRIDPSDSETHYNQKFKDKATLTVDKSSSTAYIQLSSLTSEDSAVYYCAKVGRGYFDYWGQGTTLTVSSAKTTAPSVYPLAPVCGDTTGSSVTLGCLVKGYFPEPVTLTWNSGSLSSGVHTFPAVLQSDLYTLSSSVTVTSSTWPSQSITCNVAHPASSTKVDKKIEPRGPTIKPCPPCKCPAPNLLGGPSVFIFPPKIKDVLMISLSPIVTCVVVDVSEDDPDVQISWFVNNVEVHTAQTQTHREDYNSTLRVVSALPIQHQDWMSGKEFKCKVNNKDLPAPIERTISKPKGSVRAPQVYVLPPPEEEMTKKQVTLTCMVTDFMPEDIYVEWTNNGKTELNYKNTEPVLDSDGSYFMYSKLRVEKKNWVERNSYSCSVVHEGLHNHHTTKSFSRTPGK
light: NIVLTQSPASLAVSLGQRATISCRASESVESYGNSFIYWYQQKPGQAPKLLIYLASNLASGVPARFSGSGSRTDFTLTIDPVEADDAATYYCQQNNEDPYTFGGGTKLEIKRADAAPTVSIFPPSSEQLTSGGASVVCFLNNFYPKDINVKWKIDGSERQNGVLNSWTDQDSKDSTYSMSSTLTLTKDEYERHNSYTCEATHKTSTSPIVKSFNRNEC
notes: also called α2-integrin mAb from hybridoma; α2 mAb from hybridoma supernatant
binding result [1]: no binding
binding result [2]: no binding
binding result [3]: no binding
binding result [4]: no binding
EC50 (read off the curve) [5]: ~0.2 nM
Kd [6]: 0.215 nM
